# Results reported in patent US8785391B2, “Compound and method for treatment of alzheimer's disease and familial dementia” (Alphabeta AB, priority 2010, dated 2014).
# Where two headings read alike, the source gives them in different places.
# Tests used:
# Format in all cases: biochemical
# [1] = target: T1, Aβ1-40 (Homo sapiens, UniProt P05067); assay: ThT aggregation of Aβ1-40, Bri2(90-236) added at different time points
# T1 construct: made in house; host or cells: E. coli
# Procedure: Aggregation of 8 μM Aβ1-40 was monitored by recording the ThT fluorescence intensity as a function of time in 20 mM Na-phosphate, 200 μM EDTA, 20 μM ThT, 0.02% NaN3, 37° C. with 100 rpm shaking. 800 nM Bri2(90-236) was added from a concentrated stock before the start of the experiment or at different time points after starting the experiment ranging from 0.3 to 11.2 hours.
# [2] = target: T1, Aβ1-40; assay: SDS-PAGE of supernatants, soluble Aβ1-40; conditions: co-incubation with 25 μM Aβ1-40, 37° C., 3 weeks incubation, centrifugation at 3300 g
# Procedure: (§1) […] Aβ1-40 was dissolved in 100% DMSO to 250 μM stock solution, which was diluted to working concentrations. For Thioflavin T (ThT) fluorescence measurements, 10 μl aliquots were removed at different time points, 10 μM ThT (Aldrich) added, and fluorescence was measured with a […] fluorescence plate reader (GE Healthcare), emission wavelength is 480 nm, excitation wavelength 440 nm. Measurements of ThT were done in duplicates. For analysis of soluble Aβ1-40 and ultrastructure of Aβ aggregates, aliquots were removed and centrifuged at 3300 g for 9 min. The supernatant was analyzed by SDS-PAGE and pellets were resuspended in 200 μl distilled water, 2 μl of the resuspension was added onto 200 mesh copper electron microscopy grids, stained with 2% uranyl acetate for 30 s, then left to dry at 20° C. A Hitachi H 7100 microscope operated at 75 kV was used for examination and photographing.
# [3] = target: T1, Aβ1-40; assay: Thioflavin T fluorescence of Aβ1-40 aggregation (Example 3); conditions: 25 μM Aβ1-40, Aβ/Bri2(90-236) molar ratios 1:1, 2:1, 10:1, 37° C., pH 7.0, 24 h period studied
# Procedure: 25 μM of Aβ1-40 (SEQ ID NO: 11) was incubated with or without recombinant Bri2(90-236) (SEQ ID NO: 2) in 20 mM phosphate buffer, pH 7.0 at 37° C. for 48 h, with 200 rpm agitation, at Aβ/Bri2(90-236) molar ratios of 1:1, 2:1, or 10:1. Aβ1-40 was dissolved in 100% DMSO to 250 μM stock solution, which was diluted to working concentrations. For Thioflavin T (ThT) fluorescence measurements, 10 μl aliquots were removed at different time points, 10 μM ThT (Aldrich) added, and fluorescence was measured with a […] fluorescence plate reader (GE Healthcare), emission wavelength is 480 nm, excitation wavelength 440 nm. Measurements of ThT were done in duplicates.
# [4] = target: T1, Aβ1-40; assay: Electron microscopy of Aβ1-40 pellets; conditions: co-incubation with Aβ1-40, 1:1 molar ratio, 5 days
# Procedure: as §1
# [5] = target: T2, Aβ1-42 (Homo sapiens, UniProt P05067); assay: ThT aggregation kinetics of Aβ1-42 (Example 4)
# T2 construct: made in house; host or cells: E. coli
# T2 sequence (P05067 672-713): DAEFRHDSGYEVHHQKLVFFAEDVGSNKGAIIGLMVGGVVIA
# Description: Aβ1-40 (SEQ ID NO: 11) and Aβ1-42 (SEQ ID NO: 12) were expressed in E. coli from synthetic genes and purified in batch format using ion exchange and size exclusion steps as described in Walsh et al., FEBS J. 2009, 276, 1266-1281, which results in highly pure monomeric peptide. Purified peptide was divided into 20-30 identical aliquots and frozen. Monomer was then isolated by gel filtration of an aliquot of purified peptide just prior to setting up each of the experiments listed below to remove traces of aggregate formed during freezing and thawing and to exchange buffer to the one used in the respective experiment. Monomer was collected in low-bind Ep-tubes ([…]) on ice, and the concentration was determined by absorbance or amino acid analysis after acid hydrolysis. The monomer was used as is or diluted to the desired concentration for the respective experiment. Bri2(90-236) (SEQ ID NO: 2) was expressed and purified as described in Example 1. Aggregation kinetics were studied by recording the Thioflavin T (ThT) fluorescence intensity as a function of time in a plate reader (FluoStar Omega from BMG Labtech, Offenberg, Germany). The fluorescence was recorded using bottom optics in half-area 96-well PEG-coated black polystyrene plates with clear bottom (Corning 3881) using 440 nm excitation filter and 480 nm emission filter. Aβ monomer was isolated by gel filtration as above in 20 mM Na-phosphate, 200 μM EDTA, 0.02% NaN3 (at pH 7.4 in the case of Aβ1-40 and at pH 8.0 for Aβ1-42) and diluted to 6 or 8 μM in the case of Aβ1-40 and 3 μM in the case of Aβ1-42 in the same buffer and supplemented with 20 μM ThT from a 2 mM stock. To each well in the 96-well plate was first added either 10 μl buffer (20 mM Tris/HCl pH 7.4) or 10 μl of Bri2(90-236) protein or control protein at ten times the desired final concentration in 20 mM Tris/HCl pH 7.4. To each well was then added 90 μl of the ice-cold Aβ monomer solution, and the plate was immediately placed in the plate reader at 37° C., with fluorescence read every 6 minutes with continuous shaking at 100 rpm between readings. […]
# [6] = target: T1, Aβ1-40
# Description: Aβ1-40 (SEQ ID NO: 11) and Aβ1-42 (SEQ ID NO: 12) were expressed in E. coli from synthetic genes and purified in batch format using ion exchange and size exclusion steps as described in Walsh et al., FEBS J. 2009, 276, 1266-1281, which results in highly pure monomeric peptide. Purified peptide was divided into 20-30 identical aliquots and frozen. Monomer was then isolated by gel filtration of an aliquot of purified peptide just prior to setting up each of the experiments listed below to remove traces of aggregate formed during freezing and thawing and to exchange buffer to the one used in the respective experiment. Monomer was collected in low-bind Ep-tubes ([…]) on ice, and the concentration was determined by absorbance or amino acid analysis after acid hydrolysis. The monomer was used as is or diluted to the desired concentration for the respective experiment. Bri2(90-236) (SEQ ID NO: 2) was expressed and purified as described in Example 1. Aggregation kinetics were studied by recording the Thioflavin T (ThT) fluorescence intensity as a function of time in a plate reader (FluoStar Omega from BMG Labtech, Offenberg, Germany). The fluorescence was recorded using bottom optics in half-area 96-well PEG-coated black polystyrene plates with clear bottom (Corning 3881) using 440 nm excitation filter and 480 nm emission filter. Aβ monomer was isolated by gel filtration as above in 20 mM Na-phosphate, 200 μM EDTA, 0.02% NaN3 (at pH 7.4 in the case of Aβ1-40 and at pH 8.0 for Aβ1-42) and diluted to 6 or 8 μM in the case of Aβ1-40 and 3 μM in the case of Aβ1-42 in the same buffer and supplemented with 20 μM ThT from a 2 mM stock. To each well in the 96-well plate was first added either 10 μl buffer (20 mM Tris/HCl pH 7.4) or 10 μl of Bri2(90-236) protein or control protein at ten times the desired final concentration in 20 mM Tris/HCl pH 7.4. To each well was then added 90 μl of the ice-cold Aβ monomer solution, and the plate was immediately placed in the plate reader at 37° C., with fluorescence read every 6 minutes with continuous shaking at 100 rpm between readings. Aβ1-40 was studied alone or with Bri2(90-236) at a concentration ranging from 60 nM to 6 μM. Aβ1-42 was studied alone or with Bri2(90-236) at a concentration ranging from 20 nM to 6 μM.
# T1 sequence (P05067 672-711): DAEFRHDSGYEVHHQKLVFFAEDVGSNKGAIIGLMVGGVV
molecule,measurement,setting,value
"Bri2(90-236): recombinant protein of residues 90-236 of human Bri2 (SEQ ID NO: 2), encompassing the Brichos domain, expressed in E. coli (protein, listed as Homo sapiens) GIKYIKDDVILNEPSADAPAALYQTIEENIKIFEEEEVEFISVPVPEFADSDPANIVHDFNKKLTAYLDLNLDKCYVIPLNTSIVMPPRNLLELLINIKAGTYLPQSYLIHEHMVITDRIENIDHLGFFIYRLCHDKETYKLQRRET",effect on Aβ1-40 aggregation process,"[1]; 8 μM Aβ1-40, 800 nM Bri2(90-236) added anywhere during the lag time",can be delayed
same,effect on Aβ1-40 aggregation process,"[1]; 8 μM Aβ1-40, 800 nM Bri2(90-236) added at the end of the transition",no effect is seen
same,effect on Aβ1-40 aggregation process,"[1]; 8 μM Aβ1-40, 800 nM Bri2(90-236) added close to the mid point of the transition",reduce its speed and progress at lower rate
same,effect on Aβ1-40 aggregation process,"[1]; 8 μM Aβ1-40, 800 nM Bri2(90-236) added during the early part of the sigmoidal transition",appears to halt with no further growth of the ThT positive aggregates
same,Aβ1-40 in solution (SDS-PAGE of supernatants),[2],staying in solution
same,ThT positive aggregates of Aβ1-40,[3],no ThT positive aggregates were found
same,amount of Aβ1-40 amyloid-like fibrils in pellets (electron microscopy),[4],lower amounts of fibrils
same,lag time of Aβ1-42 aggregation,"[5]; 3 μM Aβ1-42, molar ratio of 0.1 (1 Bri2(90-236) per 10 Aβ1-42), compared to the undisturbed case",doubled
same,half time of Aβ1-42 aggregation,"[5]; 3 μM Aβ1-42, molar ratio of 0.1, compared to the undisturbed case",doubled
same,prolongation of half time of Aβ1-40 aggregation,"[6]; 170 nM Bri2(90-236), relative to 6 μM Aβ1-40 alone",approximately 4.5 times
same,lag time of Aβ1-40 aggregation,"[6]; 0.01 or 0.03 molar equivalents of Bri2(90-236), far below equimolar",increases extensively
same,lag time of Aβ1-40 aggregation,[6]; above a molar ratio of 0.1 (1 Bri2(90-236) per 10 Aβ1-40 molecules),exceeds one week
same,elongation rate of Aβ1-40 aggregation,[6]; in the presence of Bri2(90-236),largely unaffected
